# Measurements published in paper PMC9482650, “Quantitative fragmentomics allow affinity mapping of interactomes” (Nature Communications, 2022).
# T1: APBA1_2, Q02410
# T1 sequence (Q02410 742-832, limits assumed, looked up): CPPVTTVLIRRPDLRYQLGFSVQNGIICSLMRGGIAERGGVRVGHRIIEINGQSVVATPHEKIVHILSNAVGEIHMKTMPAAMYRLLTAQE
# T2: CARD11, Q9BXL7
# T2 sequence (Q9BXL7 662-765, limits assumed, looked up): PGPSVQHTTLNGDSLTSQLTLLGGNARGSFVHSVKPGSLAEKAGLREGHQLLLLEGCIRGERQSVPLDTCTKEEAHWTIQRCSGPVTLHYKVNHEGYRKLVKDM
# T3: LRRC7, Q96NW7
# T3 sequence (Q96NW7 1440-1537, limits assumed, looked up): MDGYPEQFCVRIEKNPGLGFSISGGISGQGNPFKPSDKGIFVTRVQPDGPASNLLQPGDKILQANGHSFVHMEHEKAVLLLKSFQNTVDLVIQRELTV
# T4: MPP6, Q9NZW5
# T4 sequence (Q9NZW5 125-219, limits assumed, looked up): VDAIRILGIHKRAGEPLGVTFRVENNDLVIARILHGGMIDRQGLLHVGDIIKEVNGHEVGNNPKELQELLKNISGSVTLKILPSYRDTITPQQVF
# T5: NHERF3_1, Q5T2W1
# T5 sequence (Q5T2W1 4-100, limits assumed, looked up): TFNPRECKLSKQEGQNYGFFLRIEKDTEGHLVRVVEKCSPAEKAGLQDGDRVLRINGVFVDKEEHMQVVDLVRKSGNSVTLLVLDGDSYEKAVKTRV
# T6: NHERF3_3, Q5T2W1
# T6 sequence (Q5T2W1 238-333, limits assumed, looked up): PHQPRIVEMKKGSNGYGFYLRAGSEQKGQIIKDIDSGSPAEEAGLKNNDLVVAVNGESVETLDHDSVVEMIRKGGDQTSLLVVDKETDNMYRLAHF
# T7: PARD3B_1, Q8TEW8
# T7 sequence (Q8TEW8 196-299, limits assumed, looked up): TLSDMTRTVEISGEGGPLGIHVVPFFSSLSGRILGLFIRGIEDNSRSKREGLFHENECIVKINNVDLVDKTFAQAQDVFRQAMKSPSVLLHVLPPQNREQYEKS
# T8: SNTG1, Q9NSN8
# T8 sequence (Q9NSN8 52-150, limits assumed, looked up): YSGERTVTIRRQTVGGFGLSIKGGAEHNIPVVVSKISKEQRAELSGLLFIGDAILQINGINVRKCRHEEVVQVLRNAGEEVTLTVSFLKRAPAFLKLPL
# T9: SNTG2, Q9NY99
# T9 sequence (Q9NY99 68-166, limits assumed, looked up): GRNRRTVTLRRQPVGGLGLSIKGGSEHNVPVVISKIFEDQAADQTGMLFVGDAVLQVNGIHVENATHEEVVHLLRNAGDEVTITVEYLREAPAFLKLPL
# B1: SLC1A7, O00341 (peptide)
# chain: IQISELETNV
# B2: CD226, Q15762 (peptide)
# chain: TFSRRPKTRV
# Molecular target: AHNAK1, Q09666
# Sequence (Q09666 4-100): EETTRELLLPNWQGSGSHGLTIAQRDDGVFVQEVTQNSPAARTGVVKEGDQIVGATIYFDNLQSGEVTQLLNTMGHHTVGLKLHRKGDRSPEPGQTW
# Experiment: holdup assay
# Parameters: key: below the threshold = too weak to quantify, mostly under pKd 3.1 to 4
# Conditions: plain residues with an end cap or a label only (N-terminal biotin on a linker: ado-ado)
row,pKd,Binder
1,below the threshold,B1
2,below the threshold,B2

# Molecular target: T1, APBA1_2, Q02410
# Experiment: holdup assay
# Parameters: key: below the threshold = too weak to quantify, mostly under pKd 3.1 to 4
# Conditions: plain residues with an end cap or a label only (N-terminal biotin on a linker: ado-ado)
row,pKd,Binder
1,3.83,B1
2,3.48,B2

# Molecular target: T2, CARD11, Q9BXL7
# Experiment: holdup assay
# Parameters: key: below the threshold = too weak to quantify, mostly under pKd 3.1 to 4
# Conditions: plain residues with an end cap or a label only (N-terminal biotin on a linker: ado-ado)
row,pKd,Binder
1,below the threshold,B1
2,below the threshold,B2

# Molecular target: DLG1_3, Q12959
# Sequence (Q12959 457-571): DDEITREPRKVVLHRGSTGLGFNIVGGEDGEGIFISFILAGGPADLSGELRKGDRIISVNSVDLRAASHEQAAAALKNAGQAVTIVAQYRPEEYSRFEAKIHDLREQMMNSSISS
# Experiment: holdup assay
# Parameters: key: below the threshold = too weak to quantify, mostly under pKd 3.1 to 4
# Conditions: plain residues with an end cap or a label only (N-terminal biotin on a linker: ado-ado)
row,pKd,Binder
1,3.57,B1
2,below the threshold,B2

# Molecular target: DLG2_2, Q15700
# Sequence (Q15700 189-283): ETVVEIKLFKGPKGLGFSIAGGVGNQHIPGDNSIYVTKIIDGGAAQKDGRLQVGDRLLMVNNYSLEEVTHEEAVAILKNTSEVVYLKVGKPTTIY
# Experiment: holdup assay
# Parameters: key: below the threshold = too weak to quantify, mostly under pKd 3.1 to 4
# Conditions: plain residues with an end cap or a label only (N-terminal biotin on a linker: ado-ado)
row,pKd,Binder
1,4.56,B1
2,below the threshold,B2

# Molecular target: DLG5_1, Q8TDM6
# Sequence (Q8TDM6 617-713): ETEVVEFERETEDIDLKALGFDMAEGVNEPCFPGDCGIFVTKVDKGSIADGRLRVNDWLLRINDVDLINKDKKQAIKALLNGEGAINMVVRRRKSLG
# Experiment: holdup assay
# Parameters: key: below the threshold = too weak to quantify, mostly under pKd 3.1 to 4
# Conditions: plain residues with an end cap or a label only (N-terminal biotin on a linker: ado-ado)
row,pKd,Binder
1,below the threshold,B1
2,below the threshold,B2

# Molecular target: GRASP, Q7Z6J2
# Sequence (Q7Z6J2 96-193): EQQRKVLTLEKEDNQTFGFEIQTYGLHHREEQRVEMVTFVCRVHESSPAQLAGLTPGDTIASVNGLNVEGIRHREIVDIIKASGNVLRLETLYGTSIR
# Experiment: holdup assay
# Parameters: key: below the threshold = too weak to quantify, mostly under pKd 3.1 to 4
# Conditions: plain residues with an end cap or a label only (N-terminal biotin on a linker: ado-ado)
row,pKd,Binder
1,below the threshold,B1
2,3.98,B2

# Molecular target: GRIP2_6, Q9C0E4
# Sequence (Q9C0E4 648-740): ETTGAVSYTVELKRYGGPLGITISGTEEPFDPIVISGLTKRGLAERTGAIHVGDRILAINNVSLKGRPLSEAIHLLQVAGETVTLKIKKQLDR
# Experiment: holdup assay
# Parameters: key: below the threshold = too weak to quantify, mostly under pKd 3.1 to 4
# Conditions: plain residues with an end cap or a label only (N-terminal biotin on a linker: ado-ado)
row,pKd,Binder
1,below the threshold,B1
2,below the threshold,B2

# Molecular target: IL16_1, Q14005
# Sequence (Q14005 210-306): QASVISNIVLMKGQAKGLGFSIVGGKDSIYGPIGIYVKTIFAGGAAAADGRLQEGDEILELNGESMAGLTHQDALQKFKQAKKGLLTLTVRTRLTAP
# Experiment: holdup assay
# Parameters: key: below the threshold = too weak to quantify, mostly under pKd 3.1 to 4
# Conditions: plain residues with an end cap or a label only (N-terminal biotin on a linker: ado-ado)
row,pKd,Binder
1,4.05,B1
2,3.57,B2

# Molecular target: IL16_4, Q14005
# Sequence (Q14005 1229-1329): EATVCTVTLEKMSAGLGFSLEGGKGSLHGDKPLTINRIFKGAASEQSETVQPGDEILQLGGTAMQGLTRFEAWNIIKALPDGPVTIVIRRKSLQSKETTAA
# Experiment: holdup assay
# Parameters: key: below the threshold = too weak to quantify, mostly under pKd 3.1 to 4
# Conditions: plain residues with an end cap or a label only (N-terminal biotin on a linker: ado-ado)
row,pKd,Binder
1,below the threshold,B1
2,below the threshold,B2

# Molecular target: Inadl_3, Q8NI35
# Sequence (Q8NI35 359-469): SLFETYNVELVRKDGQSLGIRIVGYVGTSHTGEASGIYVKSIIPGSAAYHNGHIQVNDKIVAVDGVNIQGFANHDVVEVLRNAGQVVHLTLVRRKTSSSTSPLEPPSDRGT
# Experiment: holdup assay
# Parameters: key: below the threshold = too weak to quantify, mostly under pKd 3.1 to 4
# Conditions: plain residues with an end cap or a label only (N-terminal biotin on a linker: ado-ado)
row,pKd,Binder
1,4,B1
2,below the threshold,B2

# Molecular target: LDB3, O75112
# Sequence (O75112 1-94): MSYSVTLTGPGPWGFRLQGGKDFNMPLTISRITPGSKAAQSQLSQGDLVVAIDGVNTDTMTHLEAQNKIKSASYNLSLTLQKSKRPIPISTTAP
# Experiment: holdup assay
# Parameters: key: below the threshold = too weak to quantify, mostly under pKd 3.1 to 4
# Conditions: plain residues with an end cap or a label only (N-terminal biotin on a linker: ado-ado)
row,pKd,Binder
1,below the threshold,B1
2,below the threshold,B2

# Molecular target: LIMK2, P53671
# Sequence (P53671 143-248): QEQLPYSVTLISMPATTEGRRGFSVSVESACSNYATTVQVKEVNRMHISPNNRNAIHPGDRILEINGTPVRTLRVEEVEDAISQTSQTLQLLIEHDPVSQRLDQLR
# Experiment: holdup assay
# Parameters: key: below the threshold = too weak to quantify, mostly under pKd 3.1 to 4
# Conditions: plain residues with an end cap or a label only (N-terminal biotin on a linker: ado-ado)
row,pKd,Binder
1,below the threshold,B1
2,below the threshold,B2

# Molecular target: LNX1_1, Q8TBB1
# Sequence (Q8TBB1 261-371): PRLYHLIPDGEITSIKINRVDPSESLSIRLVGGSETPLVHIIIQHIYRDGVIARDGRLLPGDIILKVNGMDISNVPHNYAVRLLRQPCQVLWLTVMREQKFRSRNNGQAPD
# Experiment: holdup assay
# Parameters: key: below the threshold = too weak to quantify, mostly under pKd 3.1 to 4
# Conditions: plain residues with an end cap or a label only (N-terminal biotin on a linker: ado-ado)
row,pKd,Binder
1,3.91,B1
2,3.9,B2

# Molecular target: T3, LRRC7, Q96NW7
# Experiment: holdup assay
# Parameters: key: below the threshold = too weak to quantify, mostly under pKd 3.1 to 4
# Conditions: plain residues with an end cap or a label only (N-terminal biotin on a linker: ado-ado)
row,pKd,Binder
1,below the threshold,B1
2,below the threshold,B2

# Molecular target: MAGI2_3, Q86UL8
# Sequence (Q86UL8 600-682): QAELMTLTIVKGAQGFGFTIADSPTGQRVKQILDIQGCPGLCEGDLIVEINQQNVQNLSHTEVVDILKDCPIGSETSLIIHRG
# Experiment: holdup assay
# Parameters: key: below the threshold = too weak to quantify, mostly under pKd 3.1 to 4
# Conditions: plain residues with an end cap or a label only (N-terminal biotin on a linker: ado-ado)
row,pKd,Binder
1,3.96,B1
2,below the threshold,B2

# Molecular target: T4, MPP6, Q9NZW5
# Experiment: holdup assay
# Parameters: key: below the threshold = too weak to quantify, mostly under pKd 3.1 to 4
# Conditions: plain residues with an end cap or a label only (N-terminal biotin on a linker: ado-ado)
row,pKd,Binder
1,below the threshold,B1
2,below the threshold,B2

# Molecular target: T5, NHERF3_1, Q5T2W1
# Experiment: holdup assay
# Parameters: key: below the threshold = too weak to quantify, mostly under pKd 3.1 to 4
# Conditions: plain residues with an end cap or a label only (N-terminal biotin on a linker: ado-ado)
row,pKd,Binder
1,3.82,B1
2,below the threshold,B2

# Molecular target: T6, NHERF3_3, Q5T2W1
# Experiment: holdup assay
# Parameters: key: below the threshold = too weak to quantify, mostly under pKd 3.1 to 4
# Conditions: plain residues with an end cap or a label only (N-terminal biotin on a linker: ado-ado)
row,pKd,Binder
1,below the threshold,B1
2,3.63,B2

# Molecular target: NHERF4_4, Q86UT5
# Sequence (Q86UT5 464-550): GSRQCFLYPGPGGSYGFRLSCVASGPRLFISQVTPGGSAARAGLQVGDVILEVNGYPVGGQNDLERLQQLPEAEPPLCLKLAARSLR
# Experiment: holdup assay
# Parameters: key: below the threshold = too weak to quantify, mostly under pKd 3.1 to 4
# Conditions: plain residues with an end cap or a label only (N-terminal biotin on a linker: ado-ado)
row,pKd,Binder
1,3.85,B1
2,below the threshold,B2

# Molecular target: T7, PARD3B_1, Q8TEW8
# Experiment: holdup assay
# Parameters: key: below the threshold = too weak to quantify, mostly under pKd 3.1 to 4
# Conditions: plain residues with an end cap or a label only (N-terminal biotin on a linker: ado-ado)
row,pKd,Binder
1,below the threshold,B1
2,below the threshold,B2

# Molecular target: PICK1, Q9NRD5
# Sequence (Q9NRD5 17-115): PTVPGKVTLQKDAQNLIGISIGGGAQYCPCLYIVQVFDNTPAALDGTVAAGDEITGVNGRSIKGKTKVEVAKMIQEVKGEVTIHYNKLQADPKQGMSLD
# Experiment: holdup assay
# Parameters: key: below the threshold = too weak to quantify, mostly under pKd 3.1 to 4
# Conditions: plain residues with an end cap or a label only (N-terminal biotin on a linker: ado-ado)
row,pKd,Binder
1,4.18,B1
2,below the threshold,B2

# Molecular target: PTPN3, P26045
# Sequence (P26045 505-587): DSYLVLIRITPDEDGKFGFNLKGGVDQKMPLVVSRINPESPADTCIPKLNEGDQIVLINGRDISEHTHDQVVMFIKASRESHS
# Experiment: holdup assay
# Parameters: key: below the threshold = too weak to quantify, mostly under pKd 3.1 to 4
# Conditions: plain residues with an end cap or a label only (N-terminal biotin on a linker: ado-ado)
row,pKd,Binder
1,4.84,B1
2,below the threshold,B2

# Molecular target: SCRIB_1, Q14160
# Sequence (Q14160 718-814): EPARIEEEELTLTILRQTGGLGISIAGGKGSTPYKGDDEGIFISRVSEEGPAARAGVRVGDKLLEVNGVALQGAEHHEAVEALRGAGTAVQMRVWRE
# Experiment: holdup assay
# Parameters: key: below the threshold = too weak to quantify, mostly under pKd 3.1 to 4
# Conditions: plain residues with an end cap or a label only (N-terminal biotin on a linker: ado-ado)
row,pKd,Binder
1,4.11,B1
2,below the threshold,B2

# Molecular target: SCRIB_3, Q14160
# Sequence (Q14160 999-1103): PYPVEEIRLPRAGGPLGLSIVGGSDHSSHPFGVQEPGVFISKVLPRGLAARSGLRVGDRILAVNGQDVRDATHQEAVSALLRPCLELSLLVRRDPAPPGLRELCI
# Experiment: holdup assay
# Parameters: key: below the threshold = too weak to quantify, mostly under pKd 3.1 to 4
# Conditions: plain residues with an end cap or a label only (N-terminal biotin on a linker: ado-ado)
row,pKd,Binder
1,4.74,B1
2,below the threshold,B2

# Molecular target: T8, SNTG1, Q9NSN8
# Experiment: holdup assay
# Parameters: key: below the threshold = too weak to quantify, mostly under pKd 3.1 to 4
# Conditions: plain residues with an end cap or a label only (N-terminal biotin on a linker: ado-ado)
row,pKd,Binder
1,5.26,B1
2,below the threshold,B2

# Molecular target: T9, SNTG2, Q9NY99
# Experiment: holdup assay
# Parameters: key: below the threshold = too weak to quantify, mostly under pKd 3.1 to 4
# Conditions: plain residues with an end cap or a label only (N-terminal biotin on a linker: ado-ado)
row,pKd,Binder
1,4.91,B1
2,3.55,B2

# Molecular target: TJP1_3, Q07157
# Sequence (Q07157 416-512): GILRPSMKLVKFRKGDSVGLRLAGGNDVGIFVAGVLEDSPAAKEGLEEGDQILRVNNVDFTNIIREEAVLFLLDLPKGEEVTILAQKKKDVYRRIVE
# Experiment: holdup assay
# Parameters: key: below the threshold = too weak to quantify, mostly under pKd 3.1 to 4
# Conditions: plain residues with an end cap or a label only (N-terminal biotin on a linker: ado-ado)
row,pKd,Binder
1,below the threshold,B1
2,below the threshold,B2
